# In a protein production outcome set (Wang et al. 2014):
# Test: label from the status in PepcDB records
# 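Note: failed if final PepcDB status was selected cloned or expressed and not failed if soluble or beyond.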
row,Sequence,protein production
1,KGIKKEIHINDKVIYYTHIEKGSSTVCFMFSGSGYNYDKPLFYYATMLMLEHKIDVVHIHYSYDEQVMNKPMEEVTKIMMDDINPVMKEVLKAEQYNDTIFLGKSLGTIPIANDLMKREEFLQSKMILLTPLLTFDTIFDSILHSNHEGFLVMGDKDHQYNADQVDQLHKTNLQIEVVKNANHSVNVGGYETENSIEAIAKIIGKLKEVVRTN,failed
2,MLPLSLLKTAQGHPMLVELKNGETYNGHLVNCDTWMNIHLREVICTSKDGDRFWRMPECYIRGNTIKYLRVPDEVIDKVQEEKTRTDRKPPGVGRGRGRGVDDGGARGRGRGTSMGKMGGNRGAGRGRG,failed
3,MLLTLALVILFATIMVFFSQEFIRTFKKILAIRGAKLLIPLGIASWLIYNFDYLFIWVIYYIREVLQAVLAFLTRIMPFKPYSTSIALIILLTTVSVGPVLLLDLIYRKRTYKGYAYPYLTSTLILIFCTLILLVVS,failed
4,MSLELPAEVQEMPIYREWISGILAGKIASPFWEMAQPQKNQHCLDIGCGVSFLIYPWRDWQAFFYGQDVSNVARDTLNSRGSQLNSKLFKGVELGAAHQLKYTLSYFDLAIATGFSCYFPLEYWTSVLQAVKRVLKPDGHFVFDILNAAHPQAEDWAVLETYLGAEVFLEPVTEWEKIINAAGAKVVGRQPGEFFDLYKLRLEHHHHHH,not failed
5,MKLTIIRLENFSDQDRIDLQKIWPEYSPSSLQVDDNYRIYAARFNERLLAAVRVTLSGTEGALDSLRVREVTRRRGVGQYLLEEVLRNNPDVSCWWMADAGVEDRGVMTAFMRALGFTAQQGGWEKH,failed
6,MDSQTGVTRRRLLLGLGSGLGLLGGGGAYVYWSLQGDSGEYTAPNSQPVVTTRGLLDSAEEPAAETEGAWSFDDASEVFLFVHGFSTDAETARDNAYTAQLALGEYTSAPVVAYSWDSDVEWEQAKDNAVANRTLLAQWLMEWAETDGRPVHVLAHSLGARVTGETLRVLAEQGATDVLASVSLLGGAIPYDSVVQGGRYGDAIEAVDAPVSNFYSQNDKVLSWVYRASDRTHAVGHAGTRDAGPLPDGYQDVNVTDLVADHYSYFEPGEGCLARVVAEIE,failed
7,MSSTALEMASRFVNRSPFNRWLGMSVLEAGEQGIVLGIKWREELISSPEIRSTHGGILATLVDAAGDYAVALKTGHPVPTMDMHVDYHRVATPGDLRAEGQVIHFGKRFATAHARVLDMDGNLVASGRALYLIRAPQPGAAQGAA,failed
8,MPMNISNTKERILAVAEALIQKDGYNAFSFKDIATAINIKTASIHYHFPSKEDLGVAVISWHTDKIAAVLSDISNNSSLSAKEKIQKFFDAILTLTYNSENKMCLGGMFASDFQSLPVSIQNQAKKFFELIIEWLKGVLETNGYDNESSLSLAKQIISLVEGGLLLARLYGDETFLEGVRHFIDQTIK,not failed
9,YRALFEHAIDGIFIMDAEGHYLDVNPAICSAIGYTRDEFLALDWGVLSRGVDSGWAAASLARIVGGEPLREERTVWTRNGDQLTVELSAHLLPDGKILGIARDVS,not failed
10,MKSTLIDNFTLLLWASLMASSFVVSEQLLPYANPIASTALRFILATILMMPFIGRASIKQLNYKILLRYSVISLFLVLFFIGLFEALKTTNAMRTSVIYTLLPLISVVLTYIGLKFVTPNKQIAGFLIGTLGAIWVLVAFTQGKLVLIEWRLGDSIFLVACCCLALHVILIKKWATDVPPMLGAFYIMLLGSLILLPFLIFFGDLNNIAWHEDEFWKVLLYLTLFTTIATFFLQQHLLKKVGPNRLLGFTYLIPSIVLIPQGLANMSQLYSVVPGIMLTFLALYLISPKHQ,failed
11,MIVLALDVYEGERAIKIAKSVKDYISMIKVNWPLILGSGVDIIRRLKEETGVEIIADLKLADIPNTNRLIARKVFGAGADYVIVHTFVGRDSVMAVKELGEIIMVVEMSHPGALEFINPLTDRFIEVANEIEPFGVIAPGTRPERIGYIRDRLKEGIKILAPGIGAQGGKAKDAVKAGADYIIVGRAIYNAPNPREAAKAIYDEIRGV,not failed
12,MIITIARQCGCMGDQIGKALAEKYFIPFYDKDAVCRLAKEKGLYEKYPYFYGEMPLDMLLYADTMAGDDTTDNGKTPRKAMADIIGNENCVVVGRCGNNAFRHREDVISVFLTGNKEKRVELIEKKHNVSPKKAAKIVEDTDLRRRSYHNYYTGEEWGNAEYYDICIDVSKVGEDGALRLIEAYINETGVL,failed
13,MIKFMSIASGSSGNCYYLSNGNQALLIDAGIPLRSISKALKDHQLPIEGNVVGVLVTHDHADHIRTIGCLGEKFHLPVFATERVHNGINSSRYMDHLPLLSRRNILQEETFRLAGFDITAFPIPHDATENVGYHITAPGFSFTLCTDVGHITDTISHYASKADYLVMEANYDCEMLLSGPYPEFLKERVSGPNGHLSNQETGDFLARTFHPGMKHVWLCHLSKDNNHPDLCWKSIEYRLFSEGIRVGKDMELTVLKRTSPSSLYTLLEDLEHHHHHH,not failed
14,SLEEVVNELTEEIRELYTADQVPWVIGYSGGKDSTAVLQLVWMALKGLPAEQRTKAVHVISTDTLVENPVVAAWVSASLGTMQDAAQAQGLPVEPHRLTPEIKDTFWVNLLGRGYPAPRPKFRWCTERLKIKPSNAFIRSVVAAHGEAIMVLGIRKTESQARARAMEKHEKRRVRDRLSPNANLPNSLVYSPVEDWTNDDVWEFLMQKPNPWGYTNQDLLTMYQGASSDGECPLVVDSTTPSCGSSRFGCWT,failed
15,MSTSKAITLTLFIATTLLAPCNAAANATTKPLFPAILIFGDSTVDTGNNNYPLPTIFRAEHFPYGMDLPDGKANGRFSNGKLISDIIATKLNIKEFIPPFLQPNLSDQDILTGVCFASAGAGYDDLTSLSTQAIRVSEQPNMFKSYIARLKGIVGDKKAMEIINNAFVVVSAGPNDFILNYYEIPSRRLEYPFISGYQDFILKRLENFVRELYSLGVRNVLVGGLPPMGCLPIHMTAKFRNIFRFCLEHHNKDSVLYNEKLQNLLPQIEASLPGSKFLYADVYNPMMEMIQNPSKYGFKETKRGCCGTGFLETSFMCNVFSPVCQNRSEFLFFDSIHPSEATYNVIGNLLDPLIRGKFQA,failed
16,MQTFVLATNSETVSQTLCSYLEGVLDLEDSVYAVNSQPGGDRTPPDAVADGKAALEVVSDRLGDQVSVETYQIIRGNSPADDIFDIAAEVDADELVIGVRKRSQTDRLIFGSVAQDIMRQSDYPMRVVPRD,failed
17,MFIGIVSLFLTVLVYLGAKKVYQRFPRVYTSPLLVTPAVLVGLLLLVNVPYESYNLGGGLLTDMLQPATVAFAIPLYKYFPVLKKYAVEIILNVAVGSCIAIISTALIAKWLHLGTGLIDSLVPRSVTTPIAVHVSEMIGGMPAVTAVFVILTALLGTVIGPMVIRYFRIDNEIARGVLLGTSAHGAGTSKAFELSSVSGTISSVSMILAAIMTLWPAPFCFHLCKKLSSRGQFFLCASPY,failed
18,MNRLLNEKVEEFKKGVLKAGWFIEKMFRNSISSLVERNESLAREVIADEEVVDQMEVEIQEKAMEVLGLFSPIGKPLLTVTAGIRVAELIENIADKCHDIAKNVLELMEEPPLKPLEDIPAMANQTSEMLKFALRMFADVNVEKSFEVCRMDSKVDDLYEKVREELLLYMMESPKYVKRALLLLEIAGNIEIIADYATNIVEVSVYMVQGEAYKCYHDELLLFKKSGGVLFESSD,not failed
19,MFARTAIAPPFAAMAAGRIPNTHDSDMAEARPDSLTRSRAAKPAGEGAAFSPLYRQIKELLVQSLDRGEWKPGELIPSEIDLAARFQVSQGTVRKAVDELAAEHLLLRRQGKGTFVATHHEARVRYRFLRLAPDEEGEGGRAESRILECRRLRAPAEIARALELRAGETVVTIRRQLSMNHMPTVIDDLWLPGTHFRGLTLELLTASKAPLYGLFESEFGVSMVRADEKLRAVAASPEIAPLLGVEPGRPLLQVDRISYTYGDRPMEVRRGLYLTDHYHYRNSLN,failed
20,MSIMKDPNHSPHSGGMLLGFIGVAIFSQTLPFTRMAVAELDATFVALGRAVIAAALALALLAMRGALASGRRPRGGQWLRLAVTALGVVVGFPVFSSLAMREVPSGHGAIVIGLLPLATAVFAAWFGNERPSLGFWLSALAGSALVVAFALWQGAGGLQHADWYLFLAVVLGALGYAEGGKLSRELGGLETISWALVVSLPVLAPVVAWLGLEHAASIAAASPRAWLGMAYVSVFSMFIGFLFWYAGLAKGGVARVGQIQLLQPFLTLAGGALILAEPLDAATVAFAVAVIAVVALGRRAAVRNTAPAMPLASAAEEAPPILPGRLH,failed
21,MEITLNSGFKMPIIGLGVWRMEKEELRDLIIDAIKIGYRHLDCAANYKNEAEVGEALTEAFTTGLVKREDLFITTKLWSSDHGHVIEACKDSLKKLQLDYLDLFLVHIPIATKHTGIGTTDSALGDDGVLDIDTTISLETTWHDMEKLVSMGLVRSIGISNYDVFLTRDCLAYSKIKPAVNQIETHPYFQRDSLVKFCQKHGICVTAHTPLGGATANAEWFGTVSCLDDPVLKDVAEKYKQTVAQIVLRWGIQRNTVVIPKTSKPERLEENFQVFDFQLSKEDMEVIKSMERNYRTHQTAKFWGIELYA,not failed
22,MKFTQRLSLRVRLTLIFLILASVTWLLSSFVAWKQTTDNVDELFDTQLMLFAKRLSTLDLNEINAADRMAQTPNKLKHGHVDDDALTFAIFTHDGRMVLNDGDNGEDIPYSYQREGFADGQLVGEDDPWRFVWMTSPDGKYRIVVGQEWEYREDMALAIVAGQLIPWLVALPIMLIIMMVLLGRELAPLNKLALALRMRDPDSEKPLNATGVPSEVRPLVESLNQLFARTHAMMVRERRFTSDAAHELRSPLTALKVQTEVAQLSDDDPQARKKALLQLHSGIDRATRLVDQLLTLSRLDSLDNLQDVAEIPLEDLLQSSVMDIYHTAQQAKIDVRLTLNAHGIKRTGQPLLLSLLVRNLLDNGPGVTPEALARIGERFYRPPGQTATGSGLGLSIVQRIAKLHDMNVEFGNAEQGGFEAKVSW,failed
23,MMKTQAEINKRLDAYRKGTVDSPYRVKVWTSYDNRFYPMEPGCIDVDKSFHAQCADLTIDYILWLTDNEFRIRGNAKDAINPKKNKLPEGWKIVLNRPSTVPRKGWIAVFTDGTYWEYGHIGMVYDGGNTSRFQILEQNWNGWANKKPSLRWDNYYGLTHFIVPPVAKENKAVSSSKQQAPKQKVKKASTKKALPKITKHITGYNMDKRGYNPKGVVLHNDAGGMNYKQYYNNLVNANYDRLARGIAHAYVDRTGIWEAIDESRIAWHVADGTRPGSGNHDFYGIEVNQSLRASDKEFLENEQAVFQFAAEKLKKWGLPANRNTVRLHNEFSQTSCPHRSMVLHTGLDPLYHSITEHARLKLKDYFIKQIRAYMDGKKPTSKVVVSKPGSASTPATRKDANGYRENPHGTLYKEEHATFTANANIITRYVGPFTNMPQAGILKAGQTIIYDEVMKQDGYIWVGYTAYNGKRVYLPVRKWNRETDSVGKLWGVIS,failed
24,DAFTDQKIRQRYADLPGELHIIELEKDKNGLGLSLAGNKDRSRMSIFVVGINPEGPAAADGRMRIGDELLEINNQILYGRSHQNASAIIKTAPSKVKLVFIRNEDAVNQMA,not failed
25,MTLPAPWRVRHLPLLLLLLAAPLLALANSDPLPSWKDGPSKQGILAFVQAVTTQGSPDYVKAAERIAVFDNDGTLWSEQPAYFEVLFAFDEIKRLAPQHPEWKTRQPFQAVLEGDHQALAASGMHGLLQIIGATHTGISSEAFIDNARRWLAEARHPKTGRPFNQMIYQPMLEMLDYLRSQDFKTYIVSGGDTAFMRAFAESAYGIPPEQVIGSNFVTQWQFQDGQPSILRTAKLAHNDDGPGKPESIDGIIGRRPLLAFGNSDGDLQMLQWTAAGSGKRFMALVHHTDAAREWAYDRKSQVGRLDQALDQAQQHGWTLVDMAAEWRRIYPFEPLAPEQAQ,failed
26,PTWMVVNPVAGGGKWLQYEQHVIRELTKKYRLSIRQTDETTSAESLALQAKQSGVNQVIVSGGDGTVTEVASQLVGTDIQLGIIPLGTANALCHVLYGIGMKLSPVEKACEAILAGHCQRIDTAECNQ,failed
27,MLLSHIMGMDYIMSIITLALLLLAEILVAIILIGVSIEICSYGWKKSNGIKYSCLLLSLLLGTASILGLLAAPAYFFIQLTEKAL,failed
